Measured values from patent publication US10766960 (dated 2020).
Residue numbers refer to the chain shown, from its start. Names and notes keep the numbering of the source. Values joined by “and” are separate entries in the source; they are usually repeats but may differ in a detail not shown here. Identical values can stand only once. Like-named read-outs stand apart in the source and are kept apart here.

B1: H240-Kn229/H240-Hl068/L73-k0 (antibody)
chain 1: QDQLVQSGAEVKKPGASVKVSCKASGFNIKDTYIQWVRQAPGQGLEWMGRIDPLRKQTKYREKFEGRVTITADTSTNTAYMELSSLRSEDTAVYYCVRSGREFDYWGQGTLVTVSSASTKGPSVFPLAPSSKSTSGGTAALGCLVKDYFPEPVTVSWNSGALTSGVHTFPAVLQSSGLYSLSSVVTVPSSSLGTQTYICNVNHKPSNTKVDKKVEPKSCDKTHTCPPCPAPEYYWGPIVFLFPPKPKDTLMISRTPEVTCVVVDVSDEDPEVKFNWYVDGVEVHNAKTKPREEQYNATYRVVSVLTVLHQDWLNGKEYKCKVSNKDLPAPIEKTISKAKGQPREPQVCTLPPSRDELTKNQVSLWCLVKGFYPSDIAVEWESNGQPENNYKTTPPVLDSDGSFFLYSKLTVDKSRWQQGNVFSCSVMHEALHNHYTQKSLSLSP
chain 2: QDQLVQSGAEVKKPGASVKVSCKASGFNIKDTYIQWVRQAPGQGLEWMGRIDPLRKQTKYREKFEGRVTITADTSTNTAYMELSSLRSEDTAVYYCVRSGREFDYWGQGTLVTVSSASTKGPSVFPLAPSSKSTSGGTAALGCLVKDYFPEPVTVSWNSGALTSGVHTFPAVLQSSGLYSLSSVVTVPSSSLGTQTYICNVNHKPSNTKVDKKVEPKSCDKTHTCPPCPAPELLGGPSVFLFPPKPKDTLMISRTPEVTCVVVDVSHEEPEVKFNWYVDGVEVHNAKTKPREEQYNSTYRVVSVLTVLHQDWLNGKEYKCKVSNDALPKPIEETISKAKGQPREPQVYTLPPSRCELTKNQVSLSCAVKGFYPSDIAVEWESNGQPENNYKTTPPVLDSDGSFFLVSKLTVDKSRWQQGNVFSCSVMHEALHNHYTQKSLSLSP
chain 3: DIQMTQSPSSLSASVGDRVTITCRASQDIHKYIAWYQQKPGQAPRLLIQYTSTLQPGVPSRFSGSGSGTDYTFTISSLQPEDIATYYCLQYEQLRTFGGGTKVEIKRTVAAPSVFIFPPSDEQLKSGTASVVCLLNNFYPREAKVQWKVDNALQSGNSQESVTEQDSKDSTYSLSSTLTLSKADYEKHKVYACEVTHQGLSSPVTKSFNRGEC
B2: H240-AK072/H240-BH076/L73-k0 (antibody)
chain 1: B1 chain 1 with I238S, D269E, D326A, C348Y, D355K, L357M, W365T, H434R
chain 2: B1 chain 2 with K329M, C355E, L357M, S365T, A367L, V406Y, K438E
chain 3: B1 chain 3
B3: H240-Kn225/H240-Hl076/L73-k0 (antibody)
chain 1: B1 chain 1 with Y234Q, D269E, D326A
chain 2: B1 chain 2 with K329M
chain 3: B1 chain 3
B4: H240-BH076/L73-k0 (antibody)
chain 1: B1 chain 2 with K329M, C355E, L357M, S365T, A367L, V406Y, K438E
chain 2: B1 chain 3
B5: H240-AK072/L73-k0 (antibody)
chain 1: B1 chain 1 with I238S, D269E, D326A, C348Y, D355K, L357M, W365T, H434R
chain 2: B1 chain 3
B6: H240-A5E/H240-B3E/L73-k0 (antibody)
chain 1: not shown
chain 2: not shown
chain 3: B1 chain 3

What was measured:
Assay in all cases: SPR
FcgRIIIa V [1] = biological target: T1, FcgRIIIa V (human, UniProt P08637)
FcgRIIa H [2] = biological target: T2, FcgRIIa H (human, UniProt P12318)
T2 chain: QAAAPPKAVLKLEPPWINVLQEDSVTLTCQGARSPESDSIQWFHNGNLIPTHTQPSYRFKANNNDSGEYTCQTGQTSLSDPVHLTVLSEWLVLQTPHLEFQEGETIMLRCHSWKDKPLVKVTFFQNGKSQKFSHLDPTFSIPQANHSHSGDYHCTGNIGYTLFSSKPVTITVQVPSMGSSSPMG

FcgRIIa R [3] = biological target: T3, FcgRIIa R (human, UniProt P12318)
T3 chain: T2 chain with H134R

FcgRIIIa F [4] = biological target: T4, FcgRIIIa F (human, UniProt P08637)
FcgRIIb [5] = biological target: T5, FcgRIIb (human, UniProt P31994)
T5 chain: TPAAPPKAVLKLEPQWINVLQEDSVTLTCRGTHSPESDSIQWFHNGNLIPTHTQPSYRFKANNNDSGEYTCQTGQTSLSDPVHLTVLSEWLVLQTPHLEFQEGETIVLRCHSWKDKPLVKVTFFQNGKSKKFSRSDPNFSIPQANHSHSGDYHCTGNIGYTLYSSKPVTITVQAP

FcgRIa [6] = biological target: T6, FcgRIa (human, UniProt P12314)
T6 chain: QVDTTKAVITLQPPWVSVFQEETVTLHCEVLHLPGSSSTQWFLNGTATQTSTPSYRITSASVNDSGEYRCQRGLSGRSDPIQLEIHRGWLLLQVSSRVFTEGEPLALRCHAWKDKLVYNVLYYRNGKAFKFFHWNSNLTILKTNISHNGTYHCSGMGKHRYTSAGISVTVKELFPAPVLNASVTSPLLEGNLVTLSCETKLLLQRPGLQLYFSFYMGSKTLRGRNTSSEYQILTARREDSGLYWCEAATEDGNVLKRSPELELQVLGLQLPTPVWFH

FcgRIIIa V [7] = biological target: T1, FcgRIIIa V; remark: listed apart in the source
FcgRIIa R [8] = biological target: T3, FcgRIIa R
FcgRIIb [9] = biological target: T5, FcgRIIb
FcgRIIa H [10] = biological target: T2, FcgRIIa H
FcgRIIIa F [11] = biological target: T4, FcgRIIIa F; remark: listed apart in the source
FcgRIIIa F [12] = biological target: T4, FcgRIIIa F; remark: listed apart in the source
FcgRIIa H [13] = biological target: T2, FcgRIIa H
FcgRIIb [14] = biological target: T5, FcgRIIb
FcgRIIa R [15] = biological target: T3, FcgRIIa R
FcgRIa [16] = biological target: T6, FcgRIa
FcgRIIIa V [17] = biological target: T1, FcgRIIIa V; remark: listed apart in the source
FcgRIa [18] = biological target: T6, FcgRIa
FcgRIIIa F [19] = biological target: T4, FcgRIIIa F; remark: listed apart in the source
FcgRIIIa V [20] = biological target: T1, FcgRIIIa V; remark: listed apart in the source

T1 sequence (P08637 17-208 F176V): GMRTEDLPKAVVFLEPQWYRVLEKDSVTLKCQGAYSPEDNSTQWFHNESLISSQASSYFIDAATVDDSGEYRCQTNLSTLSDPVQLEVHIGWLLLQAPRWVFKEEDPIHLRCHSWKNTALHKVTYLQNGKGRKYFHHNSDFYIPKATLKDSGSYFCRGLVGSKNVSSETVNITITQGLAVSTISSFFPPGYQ
T4 sequence (P08637 17-208): as the sequence (P08637 17-208 F176V) above, with V160F counted along it

| Binder | Kd (FcgRIIIa V [1]) [nM] | Kd (FcgRIIa H [2]) [nM] | Kd (FcgRIIa R [3]) [nM] | Kd (FcgRIIIa F [4]) [nM] | Kd (FcgRIIb [5]) [nM] | Kd (FcgRIa [6]) [nM] | Kd (FcgRIIb [9]) [nM] | Kd (FcgRIIIa F [12]) [nM] | Kd (FcgRIIa H [13]) [nM] | Kd (FcgRIIa R [15]) [nM] | Kd (FcgRIIIa V [17]) [nM] | Kd (FcgRIa [18]) [nM] | Kd (FcgRIIIa F [19]) [nM] | Kd (FcgRIIIa V [20]) [nM] | other results |
| --- | --- | --- | --- | --- | --- | --- | --- | --- | --- | --- | --- | --- | --- | --- | --- |
| B1 | 0.77 | 39 | 16 | 2.1 | 200 | 0.13 | – | – | – | – | – | – | – | – | – |
| B2 | – | – | – | – | – | – | 2900 | 3.7 | 130 | 460 | 0.98 | 0.24 | – | – | Kd (FcgRIIIa V [7]): 0.99 nM and 1.2 nM; Kd (FcgRIIa R [8]): 240 nM and 280 nM; Kd (FcgRIIa H [10]): 79 nM and 72 nM and 69 nM; Kd (FcgRIIIa F [11]): 3.7 nM and 2.9 nM; Kd (FcgRIIb [14]): 1300 nM and 1400 nM and 1500 nM; Kd (FcgRIa [16]): 0.11 nM and 0.12 nM |
| B3 | 0.19 | 170 | 490 | 1.1 | 5200 | 0.036 | – | – | – | – | – | – | – | – | – |
| B4 | – | – | – | – | – | – | – | – | – | – | – | – | 26 | 5.3 | – |
| B5 | – | – | – | – | – | – | – | – | – | – | – | – | 300 | 29 | – |
| B6 | – | – | – | – | – | – | 4300 | 1600 | 910 | 940 | 330 | 0.61 | – | – | – |
